B1: P1-CN crRNA + P1 target dsDNA (mixed)
RNA: UAAUUUCUACUAAGUGUAGAUAACCUGAUCAAGAUACCCAA
DNA 1: CTTAGAGTTCTTTAAACCTGATCAAGATACCCAACCAAAC
DNA 2: TGTTGTTTGGTTGGGTATCTTGATCAGGTTTAAAGAACTCTAAG
B2: P1-CN crRNA (structured_RNA)
RNA: UAAUUUCUACUAAGUGUAGAUAACCUGAUCAAGAUACCCAA
B3: P1-L1 crRNA (structured_RNA)
RNA: UAAUUUCUACAAAACGUAGAUAACCUGAUCAAGAUACCCAA
B4: P1-L2 crRNA (structured_RNA)
RNA: UAAUUUCUACUCAGCGUAGAUAACCUGAUCAAGAUACCCAA
B5: P1-FL1 crRNA (structured_RNA)
RNA: CAAUGUCUACUCAGCGUAGAUAACCUGAUCAAGAUACCCAA
B6: P1-FL2 crRNA (structured_RNA)
RNA: GAAUGUCUACUCAGCGUAGAUAACCUGAUCAAGAUACCCAA
B7: P1-F1 crRNA (structured_RNA)
RNA: CAAUGUCUACUAAGUGUAGAUAACCUGAUCAAGAUACCCAA
B8: P1-F2 crRNA (structured_RNA)
RNA: GAAUGUCUACUAAGUGUAGAUAACCUGAUCAAGAUACCCAA

What follows are binders tested against dCas12a (DNase-dead; LbCas12a implied) (Lachnospiraceae bacterium? (only 'Lb' …, UniProt A0A5S8WF58 1-1228, D832A) (assay: EMSA).
B1: binds.

Each binder was assayed against LbCas12a (Lachnospiraceae bacterium? (only 'Lb' …, UniProt A0A5S8WF58 1-1228)) (assay: SPR).
B2: binds.
B3: binds.
B4: binds.
B5: binds.
B6: binds.
B7: binds.
B8: binds.
